Source: patent publication US20160177307

Experiments:
[1] = test system: T1, VEGF-121 (Homo sapiens), P15692-9; assay: filter
T1 sequence: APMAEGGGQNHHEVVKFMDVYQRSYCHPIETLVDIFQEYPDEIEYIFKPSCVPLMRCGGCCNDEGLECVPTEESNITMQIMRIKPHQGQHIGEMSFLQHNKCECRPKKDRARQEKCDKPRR

[2] = biological target: PDGF-BB (platelet-derived growth factor BB) (Homo sapiens) (UniProt P01127); assay: filter
[3] = Tyr, MBn, FBn, Ib, 2Nap, Pe, Th, NE dU, Heg, 2'-OMe
[4] = Trp, Ib, NE, Th, Pe, MBn dU, Heg, 2'-OMe

PDGF-BB (platelet-derived growth factor BB) (Homo sapiens), sequence (P01127 82-190): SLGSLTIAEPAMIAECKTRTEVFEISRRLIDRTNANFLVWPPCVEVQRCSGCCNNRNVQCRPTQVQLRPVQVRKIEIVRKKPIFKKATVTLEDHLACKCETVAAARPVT

Sequence: AGCCGTTAAGTGCTTGTAGGATTTAAATGGA [4867-31_97]
- Kd ([1]; P=Nap-dU, C3 spacer at 8): 7.3 nM

Sequence: AGCCGTTAAGTGCTTGTAGGATTTAAATGGA [4867-31_101]
- Kd ([1]; P=Nap-dU): 5.89 nM

Sequence: AGCCGTTCAAGTGCTTGTAGATTTAAATGGA [4867-31_99]
- Kd ([1]; P=Nap-dU, C3 spacer at 20): 0.22 nM

Sequence: AGCCGTTCAAGTGCTTGTAGGATTTAAATGGA [4867-31_66]
- Kd ([1]; P=Nap-dU, 2'-OMe G2): 0.17 nM

Sequence: AGCCGTTCAAGTGCTTGTAGGATTTAAATGGA [4867-31_67]
- Kd ([1]; P=Nap-dU, 2'-OMe C3 (inferred, superscript lost)): 0.33 nM

Sequence: AGCCGTTCAAGTGCTTGTAGGATTTAAATGGA [4867-31_68]
- Kd ([1]; P=Nap-dU, 2'-OMe C4 (inferred, superscript lost)): 7.55 nM

Sequence: AGCCGTTCAAGTGCTTGTAGGATTTAAATGGA [4867-31_72]
- Kd ([1]; P=Nap-dU, 2'-OMe C8 (inferred, superscript lost)): 0.21 nM

Sequence: AGCCGTTCAAGTGCTTGTAGGATTTAAATGGA [4867-31_73]
- Kd ([1]; P=Nap-dU, 2'-OMe A9): 5.99 nM

Sequence: AGCCGTTCAAGTGCTTGTAGGATTTAAATGGA [4867-31_74]
- Kd ([1]; P=Nap-dU, 2'-OMe A10): 3.14 nM

Sequence: AGCCGTTCAAGTGCTTGTAGGATTTAAATGGA [4867-31_75]
- Kd ([1]; P=Nap-dU, 2'-OMe G11): 0.15 nM

Sequence: AGCCGTTCAAGTGCTTGTAGGATTTAAATGGA [4867-31_76]
- Kd ([1]; 2'-OMe-U at 12 in place of NapdU, other P are NapdU, 2'-OMe-U for NapdU): 22.9 nM

Sequence: AGCCGTTCAAGTGCTTGTAGGATTTAAATGGA [4867-31_77]
- Kd ([1]; P=Nap-dU, 2'-OMe G13): 6.64 nM

Sequence: AGCCGTTCAAGTGCTTGTAGGATTTAAATGGA [4867-31_78]
- Kd ([1]; P=Nap-dU, 2'-OMe C14): 0.24 nM

Sequence: AGCCGTTCAAGTGCTTGTAGGATTTAAATGGA [4867-31_81]
- Kd ([1]; P=Nap-dU, 2'-OMe G17): 0.44 nM

Sequence: AGCCGTTCAAGTGCTTGTAGGATTTAAATGGA [4867-31_83]
- Kd ([1]; P=Nap-dU, 2'-OMe A19): 0.1 nM

Sequence: AGCCGTTCAAGTGCTTGTAGGATTTAAATGGA [4867-31_84]
- Kd ([1]; P=Nap-dU, 2'-OMe G20): 0.21 nM

Sequence: AGCCGTTCAAGTGCTTGTAGGATTTAAATGGA [4867-31_85]
- Kd ([1]; P=Nap-dU, 2'-OMe G21): 25.8 nM

Sequence: AGCCGTTCAAGTGCTTGTAGGATTTAAATGGA [4867-31_86]
- Kd ([1]; P=Nap-dU, 2'-OMe A22): 6.21 nM

Sequence: AGCCGTTCAAGTGCTTGTAGGATTTAAATGGA [4867-31_90]
- Kd ([1]; P=Nap-dU, 2'-OMe A26): 2.85 nM

Sequence: AGCCGTTCAAGTGCTTGTAGGATTTAAATGGA [4867-31_91]
- Kd ([1]; P=Nap-dU, 2'-OMe A27): 0.35 nM

Sequence: AGCCGTTCAAGTGCTTGTAGGATTTAAATGGA [4867-31_92]
- Kd ([1]; P=Nap-dU, 2'-OMe A28): 8.87 nM

Sequence: TTACGTTACACGCGTTTATAGCG [4149-8_196]
- Kd ([2]; Bn-dU, 2NE-dU17, Heg5, 2'-OMe A3, A11, A21, G24): > 10 nM

Sequence: TTACGTTACACGCGTTTATAGCG [4149-8_244]
- Kd ([2]; Bn-dU, Heg5, 2'-OMe A3, A9, A11, A21, G24): > 10 nM

Sequence: TTACGTTACACGCGTTTATAGCG [4149-8_250]
- Kd [2, 3]: > 10 nM

Sequence: TTACGTTACACGCGTTTATAGCG [4149-8_251]
- Kd [2, 3]: > 10 nM

Sequence: TTACGTTACACGCGTTTATAGCG [4149-8_252]
- Kd [2, 4]: > 10 nM

Sequence: TTACGTTACACGCGTTTATAGCG [4149-8_253]
- Kd [2, 4]: > 10 nM

Sequence: TTACGTTACACGCGTTTATAGCG [4149-8_258]
- Kd ([2]; Bn-dU, 2'-OMe U7, Ib-dU8, Heg5, 2'-OMe A3, A11, A21, G24): > 10 nM

Sequence: TTACGTTACACGCGTTTATAGCG [4149-8_276]
- Kd ([2]; Bn-dU, FBn-dU7, Ib-dU8, Pe-dU17, Th-dU18, Heg5, 2'-OMe A3, A11, A21, G24): > 10 nM

Sequence: TTACGTTACACGCGTTTATAGCG [4149-8_277]
- Kd ([2]; Bn-dU, Tyr-dU1, Ib-dU8, Pe-dU17, Th-dU18, Heg5, 2'-OMe A3, A11, A21, G24): > 10 nM

Sequence: TTACGTTACACGCGTTTATAGCG [4149-8_278]
- Kd ([2]; Bn-dU, Tyr-dU1, FBn-dU7, Ib-dU8, 2Nap-dU16, Pe-dU17, Th-dU18, Heg5, 2'-OMe A3, A11, A21, G24): > 10 nM

Sequence: TTACGTTACACGCGTTTATAGCG [4149-8_305]
- Kd ([2]; Bn-dU, 2'-OMe Bn-U1, Heg5, 2'-OMe A3, A11, A21, G24): > 10 nM

Sequence: TTACGTTACACGCGTTTATAGCG [4149-8_306]
- Kd ([2]; Bn-dU, 2'-OMe Bn-U2, Heg5, 2'-OMe A3, A11, A21, G24): > 10 nM

Sequence: TTACGTTACACGCGTTTATAGCG [4149-8_309]
- Kd ([2]; Bn-dU, 2'-OMe Bn-U16, Heg5, 2'-OMe A3, A11, A21, G24): > 10 nM

Sequence: TTACGTTACACGCGTTTATAGCG [4149-8_310]
- Kd ([2]; Bn-dU, 2'-OMe Bn-U17, Heg5, 2'-OMe A3, A11, A21, G24): > 10 nM

Sequence: TTACGTTACACGCGTTTATAGCG [4149-8_348]
- Kd ([2]; Bn-dU, Pe-dU17, 2'-F A9, Heg, 2'-OMe): > 10 nM

Sequence: TTACGTTACACGCGTTTATAGCG [4149-8_350]
- Kd ([2]; Bn-dU, Pe-dU17, 2'-F C10, Heg, 2'-OMe): > 10 nM

Sequence: TTACGTTACACGCGTTTATAGCG [4149-8_351]
- Kd ([2]; Bn-dU, Pe-dU17, 2'-F C14, Heg, 2'-OMe): > 10 nM

Sequence: TTACGTTACACGCGTTTATAGCG [4149-8_364]
- Kd ([2]; Bn-dU, dT8, Heg5, 2'-OMe A3, A11, A21, G24): > 10 nM

Sequence: TTACGTTACACGCGTTTATAGCGNT [4149-8_339]
- Kd ([2]; 4149-8_260 3'-3' dimer, C3, doubler): 0.0062 nM

Sequence: TTACGTTACACGCGTTTATAGCGNT [4149-8_340]
- Kd ([2]; 4149-8_260 3'-3' dimer, Heg, doubler): 0.0189 nM

Sequence: TTACGTTACACGCGTTTATAGCGNT [4149-8_341]
- Kd ([2]; 4149-8_260 3'-3' dimer, 2 Heg, doubler): 0.0272 nM

Sequence: TTACGTTACACGCGTTTATAGCGNT [4149-8_342]
- Kd ([2]; 4149-8_260 3'-3' dimer, 3 Heg, doubler): 0.0181 nM

Sequence: TTACGTTACCGCGTTTATAGCG [4149-8_379]
- Kd ([2]; BndU at 1,8,16,17,20, MBndU at 2, Heg at 5, C3 at 11, 2'-OMe at A3,C12,A19,A21,G24 and 2'-OMe-BnU at 7,18, Table 30 gives 1.6E-11, Table 31 5.2E-11): 0.02 nM

Sequence: TTACGTTACCGCGTTTATAGCG [4149-8_391]
- Kd ([2]; BndU, PS 9,15, 2'-OMe, Heg 5, C3 11): 0.012 nM

Sequence: TTACGTTACCGCGTTTATAGCG [4149-8_418]
- Kd ([2]; as 4149-8_379, 2'-OMe 15): 0.21 nM

Sequence: TTACGTTACCGCGTTTATAGCG [4149-8_419]
- Kd ([2]; as 4149-8_379, 2'-OMe 15, NapdU 16): 1.3 nM

Sequence: TTACGTTACCGCGTTTATAGCG [4149-8_420]
- Kd ([2]; as 4149-8_379, 2'-OMe 15, iBudU 16): 1.4 nM

Sequence: TTACGTTACCGCGTTTATAGCG [4149-8_421]
- Kd ([2]; as 4149-8_379, 2'-OMe 13): 0.019 nM

Sequence: TTACGTTACCGCGTTTATAGCG [4149-8_422]
- Kd ([2]; as 4149-8_379, 2'-OMe 13,15): 0.27 nM

Sequence: TTACGTTACCGCGTTTATAGCG [4149-8_423]
- Kd ([2]; as 4149-8_379, 2'-OMe 13, NapdU 16): 0.033 nM

Sequence: TTACGTTACCGCGTTTATAGCG [4149-8_424]
- Kd ([2]; as 4149-8_379, 2'-OMe 13,14): 6.6 nM

Sequence: TTACGTTACCGCGTTTATAGCG [4149-8_425]
- Kd ([2]; as 4149-8_379, 2'-OMe 9): 0.91 nM

Sequence: TTACGTTACCGCGTTTATAGCG [4149-8_426]
- Kd ([2]; as 4149-8_379 plus 2'-OMe A9,G13 or G15 as printed in SEQ:409): 42 nM

Sequence: TTACGTTACCGCGTTTATAGCG [4149-8_431]
- Kd ([2]; as 4149-8_379, NapdU 16, PS 9,15,17): 0.043 nM

Sequence: TTACGTTACCGCGTTTATAGCG [4149-8_432]
- Kd ([2]; as 4149-8_379, PS 9,15,17): 0.029 nM

Sequence: TTACGTTACCGCGTTTATAGCG [4149-8_433]
- Kd ([2]; as 4149-8_379, NapdU 16, PS 9,15): 0.066 nM

Sequence: TTACGTTACCGCGTTTATAGCG [4149-8_434]
- Kd ([2]; as 4149-8_379, PS 9,15): 0.032 nM

Sequence: TTACGTTACCGCGTTTATAGCG [4149-8_435]
- Kd ([2]; as 4149-8_379, BndU 2, NapdU 16, PS 9,15,17): 0.016 nM

Sequence: TTACGTTACCGCGTTTATAGCG [4149-8_436]
- Kd ([2]; as 4149-8_379, BndU 2, PS 9,15,17): 0.0077 nM

Sequence: TTACGTTACCGCGTTTATAGCG [4149-8_437]
- Kd ([2]; as 4149-8_379, BndU 2, NapdU 16, PS 9,15): 0.0074 nM

Sequence: TTACGTTACCGCGTTTATAGCG [4149-8_453]
- Kd ([2]; BndU, NapdU 16, 2'-OMe 3,7,12,13,18,19,21,24, PS 9,15,16,17, Heg 5, C3 11): 0.002 nM

Sequence: TTACGTTACCGCGTTTATAGCG [4149-8_454]
- Kd ([2]; BndU at 1,2,8,17,20, NapdU at 16, Heg 5, C3 11, 2'-OMe at 3,7,12,18,19,21,24, PS 3' of 9,15,16,17, 3'-idT): 0.0013 nM

Sequence: TTACGTTACCGCGTTTATAGCG [4149-8_455]
- Kd ([2]; BndU, NapdU 16, 2'-OMe 3,7,12,13,18,19,21,24, PS 8,9,15,16,17, Heg 5, C3 11): 0.017 nM

Sequence: TTACGTTACCGCGTTTATAGCG [4149-8_456]
- Kd ([2]; BndU, NapdU 16, 2'-OMe 3,7,12,18,19,21,24, PS 8,9,15,16,17, Heg 5, C3 11): 0.027 nM

Sequence: TTACGTTACGCGTTTATAGCG [4149-8_304]
- Kd ([2]; Bn-dU, C3 linkers, 2'-OMe): > 10 nM

Sequence: TTCGACTACGTTACACGCGTTTATAGCG [4149-8_66]
- Kd ([2]; Bn-dU, C3 at 3): > 10 nM
